This is an account of results in patent US20230285578A1 (INDIANA UNIVERSITY RESEARCH AND TECHNOLOGY, published 2023).

Holding throughout (assay): cell-based or functional assay
The target in test [1] is T1, PTH1 receptor (UniProt Q03431 27-593, limits assumed).
T1 sequence (looked up): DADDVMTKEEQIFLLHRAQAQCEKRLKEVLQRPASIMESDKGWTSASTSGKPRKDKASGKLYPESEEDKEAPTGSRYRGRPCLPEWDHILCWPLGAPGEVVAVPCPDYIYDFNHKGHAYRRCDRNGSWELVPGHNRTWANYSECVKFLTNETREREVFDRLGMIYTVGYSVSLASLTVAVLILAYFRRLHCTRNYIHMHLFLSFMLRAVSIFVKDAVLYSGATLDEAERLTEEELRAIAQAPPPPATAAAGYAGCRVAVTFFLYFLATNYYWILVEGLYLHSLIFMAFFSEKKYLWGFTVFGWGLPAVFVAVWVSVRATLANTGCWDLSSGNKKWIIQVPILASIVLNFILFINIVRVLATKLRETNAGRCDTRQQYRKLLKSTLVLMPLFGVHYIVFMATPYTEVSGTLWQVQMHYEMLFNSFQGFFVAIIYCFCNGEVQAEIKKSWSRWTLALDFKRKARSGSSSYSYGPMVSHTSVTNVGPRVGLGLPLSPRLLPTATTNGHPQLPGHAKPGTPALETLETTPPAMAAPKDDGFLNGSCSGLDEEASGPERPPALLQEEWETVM

A further test deals with T2, PTH1 receptor, Q03431.
T2 chain: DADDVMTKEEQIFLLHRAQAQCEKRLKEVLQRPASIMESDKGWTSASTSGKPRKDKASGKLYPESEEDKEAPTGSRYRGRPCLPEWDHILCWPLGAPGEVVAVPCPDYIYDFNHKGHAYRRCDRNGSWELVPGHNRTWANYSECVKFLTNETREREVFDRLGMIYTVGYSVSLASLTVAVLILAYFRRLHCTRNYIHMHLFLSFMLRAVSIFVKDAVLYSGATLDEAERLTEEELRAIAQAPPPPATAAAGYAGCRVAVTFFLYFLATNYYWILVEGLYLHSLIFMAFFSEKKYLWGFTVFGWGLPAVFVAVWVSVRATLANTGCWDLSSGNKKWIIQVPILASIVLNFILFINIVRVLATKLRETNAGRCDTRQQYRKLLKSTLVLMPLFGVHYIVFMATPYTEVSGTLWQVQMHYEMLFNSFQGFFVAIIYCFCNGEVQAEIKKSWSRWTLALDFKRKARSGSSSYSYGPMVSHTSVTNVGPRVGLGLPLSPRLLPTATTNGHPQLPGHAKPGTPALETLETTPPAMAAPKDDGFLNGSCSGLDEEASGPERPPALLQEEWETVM

Test [2] addresses T1, PTH1 receptor. This is another data set of the same source.
Test [3] concerns the target T1, PTH1 receptor. This is another data set of the same source.
The target of test [4] is T1, PTH1 receptor. This is another data set of the same source.
The target of test [5] is T1, PTH1 receptor. This is another data set of the same source.
For test [6], the target named is T1, PTH1 receptor. The source holds these as a separate data set.
For test [7], the target named is T1, PTH1 receptor. The source holds these as a separate data set.

Starred links: 1 amine or outer side, 2 acyl side, 3 side chain; linkers in the order of their positions; H or OH if unused. Groups on a side chain read outwards from the residue. No end group written: not given here. *: point of attachment. C18 diacid = O=C(O)CCCCCCCCCCCCCCCCC(=O)*; γGlu = O=C(O)[C@H](CCC(=O)[*:2])N[*:1]; AEEA = NCCOCCOCC(=O)O

B1: PTH(1-33), A8, K33(γE-2xOEG-γE-diacidC18) (peptide)
peptide: SVSEIQLAHNLGKHLNSMERVEWLRKKLQDVHK([γGlu-AEEA-AEEA-γGlu-C18 diacid])-OH
modifications: N-terminus assumed
SMILES: CC[C@H](C)[C@H](NC(=O)[C@H](CCC(=O)O)NC(=O)[C@H](CO)NC(=O)[C@@H](NC(=O)[C@@H](N)CO)C(C)C)C(=O)N[C@@H](CCC(N)=O)C(=O)N[C@@H](CC(C)C)C(=O)N[C@@H](C)C(=O)N[C@@H](Cc1c[nH]cn1)C(=O)N[C@@H](CC(N)=O)C(=O)N[C@@H](CC(C)C)C(=O)NCC(=O)N[C@@H](CCCCN)C(=O)N[C@@H](Cc1c[nH]cn1)C(=O)N[C@@H](CC(C)C)C(=O)N[C@@H](CC(N)=O)C(=O)N[C@@H](CO)C(=O)N[C@@H](CCSC)C(=O)N[C@@H](CCC(=O)O)C(=O)N[C@@H](CCCNC(=N)N)C(=O)N[C@H](C(=O)N[C@@H](CCC(=O)O)C(=O)N[C@@H](Cc1c[nH]c2ccccc12)C(=O)N[C@@H](CC(C)C)C(=O)N[C@@H](CCCNC(=N)N)C(=O)N[C@@H](CCCCN)C(=O)N[C@@H](CCCCN)C(=O)N[C@@H](CC(C)C)C(=O)N[C@@H](CCC(N)=O)C(=O)N[C@@H](CC(=O)O)C(=O)N[C@H](C(=O)N[C@@H](Cc1c[nH]cn1)C(=O)N[C@@H](CCCCNC(=O)CC[C@H](NC(=O)COCCOCCNC(=O)COCCOCCNC(=O)CC[C@H](NC(=O)CCCCCCCCCCCCCCCCC(=O)O)C(=O)O)C(=O)O)C(=O)O)C(C)C)C(C)C
On to B1, for which the “in vitro potency (fold reduction against the analog without A8)” value with PTH1 receptor [1] is approximately 100 fold.

For SVSEIELMHNLGKHLNSMERVEWLRKKLQDVHK([γGlu-miniPEG-miniPEG-γGlu-C18 diacid]) (ends and bridges not checked) [SEQ ID NO: 118], in the test with PTH1 receptor, Q03431, the EC50 pM (cAMP Hunter Teriparatide Bioassay, CHO-K1 PTHR1 cells; FIG. 13A) turned out to be 80.3 pM.

For SVSEIQLMHNLGKHLDSMERVEWLRKKLQDVHK([γGlu-miniPEG-miniPEG-γGlu-C18 diacid]) (ends and bridges not checked) [SEQ ID NO: 122], the EC50 pM (cAMP Hunter Teriparatide Bioassay, CHO-K1 PTHR1 cells; FIG. 13B) with PTH1 receptor, Q03431 turned out to be 14.3 pM.

As for SVSEIQLMHNLGKHLNSMERVEWLRKKLEDVHK([γGlu-miniPEG-miniPEG-γGlu-C18 diacid]) (ends and bridges not checked) [SEQ ID NO: 124], the EC50 pM (cAMP Hunter Teriparatide Bioassay, CHO-K1 PTHR1 cells; FIG. 13B) in the test with PTH1 receptor, Q03431 was found to be 43.1 pM.

B2: PTH(1-34), dK-1(γE-diacidC18), N(Me)G0 (peptide)
peptide: XXSVSEIQLMHNLGKHLNSMERVEWLRKKLQDVHNF
modifications: d-Lys at position -1 with side chain acylated with γE-COC16H32CO2H; N-methyl-Gly (sarcosine) at position 0; C-terminal free acid
For the molecule B2, in the test with PTH1 receptor [2], the “Potency EC50 (cAMP-responsive luciferase reporter, HEK293 cells co-transfected with the PTH1 receptor)” value (shortened to “Potency EC50”) is 45.5 nM.

B3: PTH(1-35)a, dK-1(γE-diacidC18), N(Me)G0, K35(γE-diacidC18) (peptide)
peptide: XXSVSEIQLMHNLGKHLNSMERVEWLRKKLQDVHNFX
modifications: d-Lys at position -1 with side chain acylated with γE-COC16H32CO2H; N-methyl-Gly (sarcosine) at position 0; Lys35 side chain acylated with γE-COC16H32CO2H; C-terminal amide
For the molecule B3, the “Potency EC50” value with PTH1 receptor [2] amounted to 200 nM.

On to SVSEIQLMHNLGKHLNSMERVEWLRKKLQDVHNFX (Lys35 side chain acylated with γE-COC16H32CO2H (C18 diacid); C-terminal amide) [PTH(1-35)a, K35(γE-diacidC18)], for which the “Potency EC50” value in the test with PTH1 receptor [2] was determined as 2.9 nM.

B4: PTH(1-33), K33(γE-2xOEG-γE-diacidC18) (peptide)
peptide: SVSEIQLMHNLGKHLNSMERVEWLRKKLQDVHX
modifications: Lys33 side chain acylated with γE-(miniPEG)2-γE-COC16H32CO2H; C-terminal free acid
Take B4: the “EC50 pM (cAMP Hunter Teriparatide Bioassay, CHO-K1 PTHR1 cells; FIG. 8A)” value with PTH1 receptor [3] turned out to be 31 pM. For the same molecule, in the test with PTH1 receptor [4], the “EC50 pM (cAMP Hunter Teriparatide Bioassay, CHO-K1 PTHR1 cells; FIG. 13B)” value was 19.3 pM. Besides, the “EC50 pM (cAMP Hunter Teriparatide Bioassay, CHO-K1 PTHR1 cells; FIG. 13A)” value in the test with PTH1 receptor [5] is 10.7 pM. In addition, the “EC50 pM (cAMP Hunter Teriparatide Bioassay, CHO-K1 PTHR1 cells; FIG. 12)” value with PTH1 receptor [6] was 36.6 pM. The “EC50 pM (cAMP Hunter Teriparatide Bioassay, CHO-K1 PTHR1 cells; FIG. 11)” value in the test with PTH1 receptor [7] amounted to 10 pM.

As to SVSEIQLMHNLGKHLNSXERVEWLRKKLQDVHX (site-specifically oxidised to methionine sulfoxide (position not given)) [SEQ ID NO: 110], the “EC50 pM (cAMP Hunter Teriparatide Bioassay, CHO-K1 PTHR1 cells; FIG. 12)” value with PTH1 receptor [6] stood at 41.7 pM.

As to SVSEIQLMHDLGKHLNSMERVEWLRKKLQDVHK([γGlu-miniPEG-miniPEG-γGlu-C18 diacid]) (ends and bridges not checked) [SEQ ID NO: 120], the EC50 pM (cAMP Hunter Teriparatide Bioassay, CHO-K1 PTHR1 cells; FIG. 13A) with PTH1 receptor, Q03431 was determined as 10.9 pM.
